Data taken from US9949464.

Target: green fluorescent protein (GFP), EGFP expressed from pCAG-GFP [GFP: P42212]
Experiment: cell-based or functional assay

## CRE-DOG (Cre-recombinase Dependent on GFP), GBP2+GBP7 combination: N-CreintG with C-CreintG
  induction of recombination of a floxed luciferase reporter in 293T cells: 20 to 60 fold
